Test results from the supplement of paper PMC7877785.
± gives the uncertainty stated by the source.

Assay: self-splicing fitness, log relative to wild type (ln ratio); higher = more splicing; Tetrahymena group I intron in knt gene, E. coli kanamycin selection, DiMSum; sequences stand for … in CUCUCU…GGAGGGAAAAGUUAUCAGGCAUGCACCUGGUAGCUAGUCUUUAAACCAAUAGAUUGCAUCGGUUUAAAAGGCAAGACCGUCAAAUUGCGGGAAAGGGGUCAACAGCCGUUCAGUACCAAGUCUCAGGGGAAACUUUGAGAUGGCCUUGCAAAGGGUAUGGUAAUAAGCUGACGGACAUGGUCCUAACCACGCAGCCAAGUCCUAAGUCAACAGAUCUUCUGUUGAUAUGGAUGCAGUUCACAGACUAAAUGUCGGUCGGGGAAGAUGUAUUCUUCUCAUAAGAUAUAGUCGGACCUCUCCUUAAUGGGAGCUAGCGGAUGAAGUGAUGCAACACUGGAGCCGCUGGGAACUAAUUUGUAUGCGAAAGUAUAUUGAUUAGUUUUGGAGUACUCGUGGUCG
Procedure, shortened: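 Pooled colonies went to amplicon sequencing on an Illumina HiSeq 2500 after six replicate transformations. The plates were LB agar with 100 μg/mL carbenicillin, 50 μM IPTG and 0.2% rhamnose, with or without 25 μg/mL kanamycin, incubated overnight at 37°C or 30°C. The E. coli BL21(DE3) library had all eight P1ex-region intron nucleotides randomised, the intron placed in the knt kanamycin-resistance gene on pET-22b(+). DiMSum fitness is the error-weighted combination of replicate fold changes, kanamycin against none, normalised to wild type.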

Sequence	self-splicing fitness (ln) (30 °C)	self-splicing fitness (ln) (37 °C)
ACUGAGCAAUAUUACGAGUU	-2.88 ± 0.17	-2.91 ± 0.28
UGCCAGCAAUAUUACGGCCC	-0.651 ± 0.12	-0.528 ± 0.17
CGGCAGCAAUAUUACGCAAA	-2.77 ± 0.2	-2.43 ± 0.22
UCUAAGCAAUAUUACGACGU	-0.257 ± 0.087	-0.334 ± 0.11
GUAUAGCAAUAUUACGAUAA	-0.869 ± 0.12	-0.771 ± 0.16
GAAAAGCAAUAUUACGGGCG	-1.32 ± 0.071	-0.282 ± 0.1
GUAAAGCAAUAUUACGCUUC	-3.5 ± 0.23	-1.97 ± 0.23
CAUAAGCAAUAUUACGUUAA	-2.6 ± 0.23	-2.92 ± 0.4
AUAGAGCAAUAUUACGUGAC	-1.62 ± 0.23	-1.6 ± 0.28
GUAUAGCAAUAUUACGAAAG	-3.15 ± 0.43	-2.06 ± 0.35
ACCUAGCAAUAUUACGUUGG	-2.35 ± 0.092	-2.46 ± 0.14
CAUAAGCAAUAUUACGUACG	-0.507 ± 0.053	0.239 ± 0.074
CUGAAGCAAUAUUACGUAGC	-4.07 ± 0.28	-3.43 ± 0.24
AGGAAGCAAUAUUACGUCGG	-2.61 ± 0.15	-1.13 ± 0.15
GGAGAGCAAUAUUACGUAAC	-1.69 ± 0.11	-0.596 ± 0.15
ACCAAGCAAUAUUACGCUGU	-1.61 ± 0.067	-0.313 ± 0.074
GGUUAGCAAUAUUACGCCUA	0.0795 ± 0.32	-1.32 ± 0.25

Sequence	self-splicing fitness (ln) (30 °C)	self-splicing fitness (ln) (37 °C)
AAUGAGCAAUAUUACGUCCU	-1.45 ± 0.13	-0.218 ± 0.12
UGGUAGCAAUAUUACGGGGU	-3.24 ± 0.43	
UGGCAGCAAUAUUACGGAUC	-2.22 ± 0.24	-1.99 ± 0.46
AUGAAGCAAUAUUACGACCU	0.893 ± 0.14	1.08 ± 0.15
GCUCAGCAAUAUUACGUAGU	-0.46 ± 0.059	-0.522 ± 0.075
ACGUAGCAAUAUUACGACUU	-0.145 ± 0.099	0.593 ± 0.13
AACAAGCAAUAUUACGUUCU	-2.01 ± 0.064	-1.16 ± 0.094
GAGAAGCAAUAUUACGAUCC	-1.9 ± 0.26	-0.963 ± 0.43
AACCAGCAAUAUUACGUGUU	-3.59 ± 0.11	-2.47 ± 0.12
GACCAGCAAUAUUACGGGUG	-1.85 ± 0.068	-1.36 ± 0.072
GUUAAGCAAUAUUACGACAC	-0.925 ± 0.13	0.479 ± 0.19
GUUCAGCAAUAUUACGAGCC	-3.38 ± 0.18	-2.48 ± 0.24
UUUAAGCAAUAUUACGACAU	-1.45 ± 0.015	-0.621 ± 0.034
UAGAAGCAAUAUUACGCGUU	-2.89 ± 0.15	-1.41 ± 0.13
GCUUAGCAAUAUUACGGUUG	-3.95 ± 0.18	-1.91 ± 0.12
UACUAGCAAUAUUACGCCCC	-2.19 ± 0.41	-1.18 ± 0.43
